No end group written: not given here. *: point of attachment. Biotin = O=C1N[C@H]2[C@H](CS[C@H]2CCCCC(=O)*)N1
T1: murine TpoR ectodomain, monomeric (TpoR_(1-479)) (mouse, UniProt Q08351 26-479, N-linked glycans at N117, N178, N349; tryptophan mannosylation (W465, W468))
T1 construct: signal peptide in the construct; Thrombopoietin receptor (c-Mpl), mouse, residues 1-479, followed by a TEV cleavage site and the Fc domain of hIgG1; Eluted from Protein G resin by TEV cleavage; residues of the TEV site may remain at the C-terminus; also called murine TpoR (monomeric); source: Expi293F cells, transiently transfected, secreted; purified (Protein G Sepharose, TEV elution, Superdex …)
T1 sequence (looked up): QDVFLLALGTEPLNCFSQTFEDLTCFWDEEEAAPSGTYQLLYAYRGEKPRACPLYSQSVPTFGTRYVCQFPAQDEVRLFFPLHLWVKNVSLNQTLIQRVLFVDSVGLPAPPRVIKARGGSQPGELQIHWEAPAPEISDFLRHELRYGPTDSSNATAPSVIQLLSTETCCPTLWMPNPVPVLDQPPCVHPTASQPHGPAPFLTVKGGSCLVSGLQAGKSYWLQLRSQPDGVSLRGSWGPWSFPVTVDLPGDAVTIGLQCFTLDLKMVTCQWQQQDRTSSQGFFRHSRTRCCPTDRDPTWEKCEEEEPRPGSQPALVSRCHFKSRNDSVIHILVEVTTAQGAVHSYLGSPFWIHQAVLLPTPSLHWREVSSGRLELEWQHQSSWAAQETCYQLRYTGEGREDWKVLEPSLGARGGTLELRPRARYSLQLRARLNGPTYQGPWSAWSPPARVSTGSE

T2: murine TpoR ectodomain, monomeric (TpoR_(1-479)) (mouse, UniProt Q08351 26-479, N-linked glycans at N117, N178, N349; tryptophan mannosylation (W465, W468))
T2 chain: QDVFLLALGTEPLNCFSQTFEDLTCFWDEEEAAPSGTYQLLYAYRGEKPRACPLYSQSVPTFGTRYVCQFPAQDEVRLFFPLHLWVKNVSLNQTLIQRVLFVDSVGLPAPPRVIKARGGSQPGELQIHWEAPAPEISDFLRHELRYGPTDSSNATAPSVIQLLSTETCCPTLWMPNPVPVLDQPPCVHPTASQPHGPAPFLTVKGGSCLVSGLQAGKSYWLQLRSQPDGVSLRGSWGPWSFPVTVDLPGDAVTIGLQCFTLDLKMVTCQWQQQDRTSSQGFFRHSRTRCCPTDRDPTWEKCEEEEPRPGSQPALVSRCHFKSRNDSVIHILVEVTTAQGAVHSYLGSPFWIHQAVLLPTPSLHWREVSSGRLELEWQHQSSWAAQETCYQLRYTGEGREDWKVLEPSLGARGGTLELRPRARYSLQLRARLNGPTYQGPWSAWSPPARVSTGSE


Assays:
[1] = target: murine TpoR ectodomain, monomeric (TpoR_(1-479)) (mouse) (UniProt Q08351)
[2] = target: murine TpoR ectodomain, monomeric (TpoR_(1-479)) (mouse) (UniProt Q08351); assay: SPR; high concentrations of the Tpo F162E mutant, up to 10 µM; which TpoR form and which partner was immobilised is not stated
[3] = target: T1, murine TpoR ectodomain, monomeric …; assay: SPR; TpoR (monomeric, dimeric or mutants) as analyte over N-terminally biotinylated romiplostim peptides on streptavidin chips; HBS-EP; two-fold dilution series, highest 100 nM; details: both partners purified
[4] = target: T2, murine TpoR ectodomain, monomeric …; assay: SPR; TpoR over immobilised romiplostim peptide
[5] = target: T2, murine TpoR ectodomain, monomeric …; assay: SPR; TpoR over immobilised romiplostim peptide

Row | ability to induce differentiation of M1(TpoR) cells, fold decrease relative to the WT [1] | binding result [3] | Molecule | further results
1 | 100 fold |  | murine Tpo D29E (site II mutant) (from UniProt P40226 22-356) (ligand) | 
2 |  |  | murine Tpo F162E (site I mutant) (from UniProt P40226 22-356) (ligand) | Kd [2]: > 10 µM
3 | 100 fold |  | murine Tpo D29Y (site II mutant) (from UniProt P40226 22-356) (ligand) | 
4 |  | binds | Biotin-IEGPTLRQWLAARA (TpoR agonist peptide motif of romiplostim; also called monomeric-romiplostim; monomeric version of the peptide; source: synthetic peptide) [monomeric version of the romiplostim peptide] | 
5 |  | binds | Biotin-IEGPTLRQWLAARAGGIEGPTLRQWLAARA (two copies of the TpoR agonist peptide joined by GG; Not the Fc fusion drug itself; The biotin is stated for the peptides coupled to streptavidin chips; also called romiplostim peptide; dimeric romiplostim peptide; source: synthetic peptide) [peptide version of romiplostim (two copies of IEGPTLRQWLAARA connected by a GG linker)] | Kd [4]: 71 nM; koff [5]: 0.017 s⁻¹
